Measured values from the nanobody polyreactivity screen of Harvey et al. (2022).

Experiment: yeast display, Sf9 membrane polyspecificity reagent, FACS + sequencing; frameworks hold sequencing errors
How it was run: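 Galactose induction of a Saccharomyces cerevisiae BJ5465 synthetic nanobody display library ran 36–48 hours. The cells were then stained for 1 hour at 4 °C with 10% biotinylated, detergent-solubilized Sf9 membrane reagent, pulled down on streptavidin microbeads and FACS-sorted into low and high (top ~1%) gates on expression and reagent-binding fluorescence. Labels for polyreactivity follow the gate of origin.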

Row | Sequence | polyreactivity (PSR sort gate)
1 | QVQLVESGGGLVQAGGSLRLSCAASGSTFSTNAMGWFIQAPGKARELVAGISRSGGRTYYADSVKGRFTISRDNAKTTVYLQMNSLKPEETAVYYSNAVRRFASPSPHYYWGQGTQVTLSS | high polyreactivity
2 | QVQLVESGGGLVQAGGSLRLSCAASGSTFSTNAMGWYRPAPAKEREFGAAITWSGDSTDYADSVKGRFTISRDNAKNTVYLHMNSLKPEDTAVYYCSAGPFLESYRGYSEMDYWGQGTQVTVSS | low polyreactivity
3 | QVQLVESGGGLVQAGGSLRLSCAASGSTFSTNAMGWYRQAPGKERELVAAISRRGGNTYYADSVKGRFTISRDNAKNTVYLQMNSLKPEDTAGYYCAAKYYRFGDPDRYDYWGQGTQVTVSS | high polyreactivity
4 | QVQLVESGGGLVQAGGSLRLSCAASGSTFSTYAMGWYRQAPGKERELVAAIRSGGSTYYADSVKGRFTISRDNAKNTVYLQMNSLKPEDTAVYYCAAKPRNYSYRYYYWGQGTLVTVSS | high polyreactivity
5 | QVQLVESGGGLVQAGGSLRLSCAASGSTFSTYAMGWYRQAPGKERELVAAITRRGGRTYYADSVKGRFTISRDNAKNTVYLQMNSLKPEDTAVYYCAKTSPVSDGYYWGQGTQVTVSS | high polyreactivity
6 | QVQLVESGGGLVQAGGSLRLSCAASGSTFSVYAMGWYRQAPGKERELVATISWGGGITYYADSVKGRFTISRDNAKNTVYLQMNSLKPEDTAVYYCAKELYSWLPGYRCEGTMDYWGQGTQVTVSS | high polyreactivity
7 | QVQLVESGGGLVQAGGSLRLSCAASGSTFSVYAMGWYRQAPGKERELVATISWGGGITYYADSVKGRFTISRDNAKNTVYLQMNSLKPEDTAVYYCHSSKYGYWGQGTQVTVSS | high polyreactivity
8 | QVQLVESGGGLVQAGGSLRLSCAASGSTFSWYAMGWYRQAPGKERELVASISFSGGDTSYADSVKGRFTISRDNAKNTVYLQMNSLKPEDTEVYYCGKEYKYETDTIFDYWGQGTQVTVSS | low polyreactivity
9 | QVQLVESGGGLVQAGGSLRLSCAASGSTFSWYTMGWYRQAPGKERELVAAISWSGGRTYYADSVKGRFTISRDNAKNTVYLQMNSLKPEDTAVYYCAAYDYWYSLGDYQFYYSGQGTQVTVSS | low polyreactivity
10 | QVQLVESGGGLVQAGGSLRLSCAASGSTFSYAMGWYRQAPGKERELVAAITIGGRTSYADSVKGRFTISRDNAKNTVYLQMNSLKPEDTAVYYCAAEGYYPVYYYVYYGYDYWGQGTQVTVSS | low polyreactivity
11 | QVQLVESGGGLVQAGGSLRLSCAASGSTFSYNAMGWYRQAPGKERELVAAIDRSVSTNYADSVKGRFTISRDNAKNTVYLQMNSLKTEDTAVYYCNARHPTDDIVIYDYWGQGTQVTVSS | low polyreactivity
12 | QVQLVESGGGLVQAGGSLRLSCAASGSTFSYNAMGWYRQAPGKERELVAAISRRGGGTYYADSVKGRFTISRDKAKNTVSLHMNSLKPVDTAVYYCNADIWYKTYDYWGQGTQVTVSS | low polyreactivity
13 | QVQLVESGGGLVQAGGSLRLSCAASGSTFSYNAMGWYRQAPGKERELVAAITSTGRTYYADSVKGRFTITRDNAKNTVYLQMISLKPEDTAGYYCNKVYYRFYSADFGYGWYLRYDYWGQGTQVTVSS | high polyreactivity
14 | QVQLVESGGGLVQAGGSLRLSCAASGSTFSYNMGWYRQAPGKERELVAAISGSGGSTYADSVKGRFTISRDNAKNTVYLQMNSLKPEDTAVYYCATVRYWVHEYGYWGQGTQVTVSS | high polyreactivity
15 | QVQLVESGGGLVQAGGSLRLSCAASGSTFSYYAMGWYRQAPGKERELVAAITRGGSTYYADSVKGRFTISRDNAKNTVYLQMNSLKPEDTAVYYCATRTWRWGYLHYDYWGQGTQVTVSS | low polyreactivity
16 | QVQLVESGGGLVQAGGSLRLSCAASGSTFSYYAMGWYRQAPGKERELVASISSGGSTNYADSVKGRFTISRANAKNTVYLQMNSLKPEDSAVYYCKADSWTVNRRYYYYRYEYWGQGSQVTVSS | low polyreactivity
17 | QVQLVESGGGLVQAGGSLRLSCAASGSTFSYYAMVWYRQAPGKERELVADISSGGSTNYADSVKGRFTISRDNAKNTVYLQMNSLKPEDTAVYYCNRRYSYYDGFDYWGQGTQVTVSS | low polyreactivity
18 | QVQLVESGGGLVQAGGSLRLSCAASGSTFSYYTMGWSRQAPGKERELVAAISRGGSTNYADSVKGRFTISRDNAKNTVYLQMNSLKPEDTAVYYCAAEPGRTKRYKVRMDYWGQGTQVTVSS | high polyreactivity
19 | QVQLVESGGGLVQAGGSLRLSCAASGSTFSYYTMGWYRQAPGKERELVADIDSGDDTYYADSVKGRFTISRDNAKNTVYLQMNSLKPEDTAVYYCATEFNRPHFTVRVRFKYYYWGQGTQVTVSS | low polyreactivity
20 | QVQLVESGGGLVQAGGSLRLSCAASGSTFSYYTMGWYRQAPGKERELVAGISYSGGRTYYADSVKGRFTSSRDKAKNTVYLQMNSLKPEDTAVYYCAKVSWRRGAFYYWGQGTQVTVSS | high polyreactivity
21 | QVQLVESGGGLVQAGGSLRLSCAASGSTFSYYTMGWYRQATGKERELVAAISGSGGSTYYADSVKGRFTISRDNAKNTVYLQMKSLKPEDTAVYYCAALRAGSKCFDFWGQGTQVTVSS | high polyreactivity

Row | Sequence | polyreactivity (PSR sort gate)
22 | QVQLVESGGGLVQAGGSLRLSCAASGSTFTAYAMGWYRQATREDRELVARIGGTYYADSVKGRFTISRDNAKNTVYLQMNSLKPEDTAVYYCAAEYGYDFFRSYQEYGYWGQGTQVTVSS | low polyreactivity
23 | QVQLVESGGGLVQAGGSLRLSCAASGSTFTDYAMGWYRQAPGKERELVAAITNSGSSTNYEDSVKGRFTISRDNAKNTVYLQMNSLKPEDTAVYYCNASSYPWEYYYLYYGYDYWVQGTQVTVSS | low polyreactivity
24 | QVQLVESGGGLVQAGGSLRLSCAASGSTFTDYAMGWYRQAPGKERELVASITSGGRTNYADSVKGRFTISRDNAKNTVYLQMNSLKPEDTAVYYCNASAWLVVARTRYGYWGQGTQVTVSS | low polyreactivity
25 | QVQLVESGGGLVQAGGSLRLSCAASGSTFTDYTMGWYRQAPGKERELVARIRSRGARTYYADSVKGRFTISRDNAKNTVYLQMNSLKPEDTAVYYCAAAGVRSYAGDYWGQGTQVTVSS | high polyreactivity
26 | QVQLVESGGGLVQAGGSLRLSCAASGSTFTFNAMVWYRQAPGKERELVAAITTSAGSTYYADSVKGRFTISRDNAKNTVYLQMSSLKPEDTAVYYCAARYVPPWGRRYYYWGQGTQVTVSS | high polyreactivity
27 | QVQLVESGGGLVQAGGSLRLSCAASGSTFTGNAMGWYRQAPGKERELVAAISRSGGRTYYADSVKGRFTISRDNAKNTVYLQMNILKPEDTGVYYCNAVRNRGQRTAFDYWGQGTQVTVSS | high polyreactivity
28 | QVQLVESGGGLVQAGGSLRLSCAASGSTFTGNAMGWYRQAPGKERELVASINGSSGSTYYADSVKGRFTISRDNAKNTVYLQMNSLKPEDTAVYYGAKDSFLHFPRVGWVGLEYWGQGTQVTVSS | low polyreactivity
29 | QVQLVESGGGLVQAGGSLRLSCAASGSTFTGYALGWYRQAPGKERELVAAISSGGSTYYADSVKGRFTISRDNAKNTVYLQMNSLKPEDTAVYYCAAAPRWKASRLYYWGQGTQVTVSS | high polyreactivity
30 | QVQLVESGGGLVQAGGSLRLSCAASGSTFTGYAMGWYRQAPGKERELVAGISVTGGNTYYADSVKGRFTISRDNAKKTVYLQMNSLKPEDTAVYYCNAVVLSYYAGEMDYWGQGTQVTVSS | low polyreactivity
31 | QVQLVESGGGLVQAGGSLRLSCAASGSTFTHYAMGWYRQAPGKERELVAAISSRGGSTYADSVKGRFTISRDNAKNTVYLQMNSLKPEDTAVYYCAARYRLYYYFRFDWGQGTQVTVSS | high polyreactivity
32 | QVQLVESGGGLVQAGGSLRLSCAASGSTFTIYAMGWYRQAPGTERELVATIRAGGGRTSYADSVKGRFTISRDNAKNTVYLQMNSLKPEETAVYYCAVYVRPTRYGYWGQGTQVTVSS | high polyreactivity
33 | QVQLVESGGGLVQAGGSLRLSCAASGSTFTIYAYGWYRQAPGKERELVAAITRGGGRTYYADSVKGRFTISRDNAKNTVFLQMNSLKPEVTAVYYCAAYYAHEFDYRGQGTQVTVSS | high polyreactivity
34 | QVQLVESGGGLVQAGGSLRLSCAASGSTFTKYAMGWYRQAPGQERELVAAITASGGNTYYADSVKGRFTISRDNAKNTVYLQMNSLKPEDTAVYSCAAVTGLFYHPFYKYNYWGQGTQVTVSS | high polyreactivity
35 | QVQLVESGGGLVQAGGSLRLSCAASGSTFTKYDMGWYRQAPGKERELVAAIRSGGDTNYADSVKGRFTISRDNAKNTVYLQMNSLKPEDTAVYYCAATVLGDYEYWGQGTQVTVSS | low polyreactivity
36 | QVQLVESGGGLVQAGGSLRLSCAASGSTFTKYTMGWYRQAPGKERELVAAITSSGGSTYYADSVKGRFTISRDNAKNTVYLQMNSLKPEDTAVFYCAAPALYYYYYYGYDYWGQGTQVTVSS | high polyreactivity
37 | QVQLVESGGGLVQAGGSLRLSCAASGSTFTLNAMGWYRQAPGKERELVADISWSSGRTYYADSVKGRFTISRDNAKNTVYLQMNSLKPEDTAVYYCATYDFWNVKFYAYYPEFDYWGQGTQVTVSS | low polyreactivity
38 | QVQLVESGGGLVQAGGSLRLSCAASGSTFTLYAMGGYIQAPGKERELVAAITSDDSTYYADSVKGRFTISRDNAKNTVYLQMNSLKPEDTAVYYCAADVYYGDFEMDYWGQGTQVTVSS | low polyreactivity
39 | QVQLVESGGGLVQAGGSLRLSCAASGSTFTLYAMGWYRKAPGKERELVAAISRSGGRTYYADSVKGRFTISRDNAKNTVYLQMNSLKPEDTAVYYCNAPYKQDYDYWGQGTQVTVSS | high polyreactivity
40 | QVQLVESGGGLVQAGGSLRLSCAASGSTFTLYAMGWYRQAPGKERELVAAISGIGDSTYYADSVKGRFTISRDYAKNNVYLQKNSLKPEDTAVYYCAADGEYRYDWEYESWGQGTHVTVSS | low polyreactivity
41 | QVQLVESGGGLVQAGGSLRLSCAASGSTFTLYAMGWYRQAPGKERELVATITGSGGSTNYADSVKGRFTISRDNAKNTVYLQMNSLKPEDTAVYYCAADYAVYSFTDFNYWGQGTQVTVSS | high polyreactivity
